US20200317768A1 (published 2020)

T1: cynomolgus monkey FcγRIIIaS extracellular domain with C-terminal His-tag (cynomolgus monkey, UniProt Q8SPW2 21-206 at identity 1.00))
T1 construct: also called cyno FcgRIIIaS; cynoFcγRIIIaS
T1 chain: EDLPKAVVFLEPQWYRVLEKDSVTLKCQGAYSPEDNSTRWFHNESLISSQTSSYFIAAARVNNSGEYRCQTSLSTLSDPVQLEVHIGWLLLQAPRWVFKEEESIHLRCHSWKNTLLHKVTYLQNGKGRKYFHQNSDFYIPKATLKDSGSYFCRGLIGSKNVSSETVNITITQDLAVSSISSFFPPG

T2: cynomolgus monkey FcγRIIa2 extracellular domain with C-terminal His-tag (cynomolgus monkey)
T2 construct: also called cyno FcgRIIa2; cynoFcγRIIa2
T2 chain: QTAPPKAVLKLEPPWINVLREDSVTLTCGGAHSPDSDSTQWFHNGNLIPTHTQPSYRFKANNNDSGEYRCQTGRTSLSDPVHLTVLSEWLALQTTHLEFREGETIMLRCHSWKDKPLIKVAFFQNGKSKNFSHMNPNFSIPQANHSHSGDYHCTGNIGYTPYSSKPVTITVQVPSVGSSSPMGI

T3: cynomolgus monkey FcγRIIa1 extracellular domain with C-terminal His-tag (cynomolgus monkey)
T3 construct: also called cyno FcgRIIa1; cynoFcγRIIa1
T3 chain: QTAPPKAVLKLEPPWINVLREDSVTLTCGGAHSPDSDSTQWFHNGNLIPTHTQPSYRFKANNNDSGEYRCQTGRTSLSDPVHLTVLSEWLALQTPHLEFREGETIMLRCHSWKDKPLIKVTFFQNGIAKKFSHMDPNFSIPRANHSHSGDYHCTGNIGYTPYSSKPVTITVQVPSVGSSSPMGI

T4: human FcγRIIb extracellular domain with C-terminal His-tag (human, UniProt P31994 43-217)
T4 construct: also called human FcgRIIb
T4 sequence: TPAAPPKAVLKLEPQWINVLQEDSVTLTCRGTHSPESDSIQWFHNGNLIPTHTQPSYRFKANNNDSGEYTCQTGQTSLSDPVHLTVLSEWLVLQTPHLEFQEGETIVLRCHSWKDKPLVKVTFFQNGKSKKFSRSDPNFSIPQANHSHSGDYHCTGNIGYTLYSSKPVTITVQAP

T5: human FcγRIIaH extracellular domain with C-terminal His-tag (human, UniProt P12318 34-217)
T5 construct: also called human FcgRIIaH; FcγRIIa (type H)
T5 sequence: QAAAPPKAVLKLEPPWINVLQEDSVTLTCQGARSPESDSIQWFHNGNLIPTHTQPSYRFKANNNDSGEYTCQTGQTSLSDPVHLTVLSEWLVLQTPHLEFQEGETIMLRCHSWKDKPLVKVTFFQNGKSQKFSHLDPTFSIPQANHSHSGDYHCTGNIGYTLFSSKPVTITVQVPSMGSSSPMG

T6: human FcγRIIaR extracellular domain with C-terminal His-tag (human, UniProt P12318 34-217)
T6 construct: also called human FcgRIIaR; FcγRIIa (type R)
T6 chain: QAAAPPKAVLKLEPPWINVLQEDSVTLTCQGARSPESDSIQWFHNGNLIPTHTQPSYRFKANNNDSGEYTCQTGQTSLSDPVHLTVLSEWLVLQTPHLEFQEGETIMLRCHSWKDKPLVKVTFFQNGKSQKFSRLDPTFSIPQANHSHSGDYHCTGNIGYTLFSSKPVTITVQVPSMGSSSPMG

T7: cynomolgus monkey FcγRIIb extracellular domain with C-terminal His-tag (cynomolgus monkey)
T7 construct: also called cyno FcgRIIb; cynoFcγRIIb
T7 chain: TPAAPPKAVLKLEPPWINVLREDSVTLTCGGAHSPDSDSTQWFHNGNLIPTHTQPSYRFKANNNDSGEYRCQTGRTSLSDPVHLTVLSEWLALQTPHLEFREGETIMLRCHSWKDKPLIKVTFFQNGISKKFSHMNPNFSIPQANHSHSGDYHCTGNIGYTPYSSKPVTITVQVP


Experiments:
[1] = target: T1, cynomolgus monkey FcγRIIIaS …; assay: SPR (BIACORE), antibody captured, FcgR analyte
[2] = target: T2, cynomolgus monkey FcγRIIa2 …; assay: SPR (BIACORE); KD of SG1 / KD of variant;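 further: relative to parent M103205H795-SG1 carrying the SG1 human heavy chain constant region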
[3] = target: T3, cynomolgus monkey FcγRIIa1 …; assay: SPR (BIACORE); KD of SG1 / KD of variant;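 further: relative to parent M103205H795-SG1 carrying the SG1 human heavy chain constant region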
[4] = target: T4, human FcγRIIb extracellular domain with …; assay: SPR (BIACORE); KD of SG1 / KD of variant;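 further: relative to parent M103205H795-SG1 carrying the SG1 human heavy chain constant region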
[5] = target: T5, human FcγRIIaH extracellular domain …; assay: SPR (BIACORE); KD of SG1 / KD of variant;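 further: relative to parent M103205H795-SG1 carrying the SG1 human heavy chain constant region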
[6] = target: T8, human FcγRIIIaV extracellular domain with C-terminal His-tag (human, UniProt P08637 17-208); assay: SPR (BIACORE); KD of SG1 / KD of variant
T8 construct: also called human FcgRIIIaV

[7] = target: T6, human FcγRIIaR extracellular domain …; assay: SPR (BIACORE); KD of SG1 / KD of variant
[8] = target: T1, cynomolgus monkey FcγRIIIaS …; assay: SPR (BIACORE); KD of SG1 / KD of variant
[9] = target: T7, cynomolgus monkey FcγRIIb extracellular …; assay: SPR (BIACORE); KD of SG1 / KD of variant

T8 sequence (P08637 17-208 F176V): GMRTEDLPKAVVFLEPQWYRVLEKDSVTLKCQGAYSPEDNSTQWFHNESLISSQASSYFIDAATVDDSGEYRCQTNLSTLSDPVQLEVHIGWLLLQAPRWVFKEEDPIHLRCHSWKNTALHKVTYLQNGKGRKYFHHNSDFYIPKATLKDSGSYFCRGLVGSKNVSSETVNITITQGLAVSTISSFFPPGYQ

Binder	Kd [1] [nM]	KD fold (SG1 = 1) [2] [fold]	KD fold (SG1 = 1) [3] [fold]	KD fold (SG1 = 1) [4] [fold]	KD fold (SG1 = 1) [5] [fold]	KD fold (SG1 = 1) [6] [fold]	KD fold (SG1 = 1) [7] [fold]	KD fold (SG1 = 1) [8] [fold]	KD fold (SG1 = 1) [9] [fold]
M103205H795-MY514/M103202L889-SK1 (antibody, human IgG1, kappa, Substitutions introduced into M103205H795-SG1, expressed with M103202L889-SK1 as light chain; EU numbering) heavy: QVTLKESGPVLVKPTETLTLTCTVSGIDLSHDDISWVRQAPGKGLEWVGIISYAGSTYYASWAKGRLTISKDTSKNQVVLTMTNMDPVDTATYYCARGVPAYSHGGDLWGQGTLVTVSSASTKGPSVFPLAPSSKSTSGGTAALGCLVKDYFPEPVTVSWNSGALTSGVHTFPAVLQSSGLYSLSSVVTVPSSSLGTQTYICNVNHKPSNTKVDKKVEPKSCDKTHTCPPCPAPELLTGPVVFLFPPKPKDTLMISRTPEVTCVVVDVSDEDPEVKFNWYVDGVEVHNAKTKPREEQYNLTYRVVSVLTVLHQDWLNGKEYKCKVSNKALPKPIEKTISKAKGQPREPQVYTLPPSREEMTKNQVSLTCLVKGFYPSDIAVEWESNGQPENNYKTTPPVLDSDGSFFLYSKLTVDKSRWQQGNVFSCSVMHEALHNHYTQKSLSLSP light: DIVMTQSPATLSLSPGERATLSCTSSQSVYHANWLSWFQQKPGQPPKLLIYWASTLAYGVPSRFSGSGSGTDFTLTISSLQPEDAATYYCAGGYGGGRYAFGQGTKVEIKRTVAAPSVFIFPPSDEQLKSGTASVVCLLNNFYPREAKVQWKVDNALQSGNSQESVTEQDSKDSTYSLSSTLTLSKADYEKHKVYACEVTHQGLSSPVTKSFNRGEC	4400	3.2	12.3	6.7	2	0.08	6.5	0.08	2.4
M103205H795-MY516/M103202L889-SK1 (antibody, human IgG1, kappa, Substitutions introduced into M103205H795-SG1, expressed with M103202L889-SK1 as light chain; EU numbering) heavy: QVTLKESGPVLVKPTETLTLTCTVSGIDLSHDDISWVRQAPGKGLEWVGIISYAGSTYYASWAKGRLTISKDTSKNQVVLTMTNMDPVDTATYYCARGVPAYSHGGDLWGQGTLVTVSSASTKGPSVFPLAPSSKSTSGGTAALGCLVKDYFPEPVTVSWNSGALTSGVHTFPAVLQSSGLYSLSSVVTVPSSSLGTQTYICNVNHKPSNTKVDKKVEPKSCDKTHTCPPCPAPELLTGPVVFLFPPKPKDTLMISRTPEVTCVVVDVSDEDPEVKFNWYVDGVEVHNAKTKPREELYNLTYRVVSVLTVLHQDWLNGKEYKCKVSNKALPKPIEKTISKAKGQPREPQVYTLPPSREEMTKNQVSLTCLVKGFYPSDIAVEWESNGQPENNYKTTPPVLDSDGSFFLYSKLTVDKSRWQQGNVFSCSVMHEALHNHYTQKSLSLSP light: DIVMTQSPATLSLSPGERATLSCTSSQSVYHANWLSWFQQKPGQPPKLLIYWASTLAYGVPSRFSGSGSGTDFTLTISSLQPEDAATYYCAGGYGGGRYAFGQGTKVEIKRTVAAPSVFIFPPSDEQLKSGTASVVCLLNNFYPREAKVQWKVDNALQSGNSQESVTEQDSKDSTYSLSSTLTLSKADYEKHKVYACEVTHQGLSSPVTKSFNRGEC	3000	3.9	21.3	9	3.1	0.12	12.9	0.12	4
M103205H795-MY515/M103202L889-SK1 (antibody, human IgG1, kappa, Substitutions introduced into M103205H795-SG1, expressed with M103202L889-SK1 as light chain; EU numbering) heavy: QVTLKESGPVLVKPTETLTLTCTVSGIDLSHDDISWVRQAPGKGLEWVGIISYAGSTYYASWAKGRLTISKDTSKNQVVLTMTNMDPVDTATYYCARGVPAYSHGGDLWGQGTLVTVSSASTKGPSVFPLAPSSKSTSGGTAALGCLVKDYFPEPVTVSWNSGALTSGVHTFPAVLQSSGLYSLSSVVTVPSSSLGTQTYICNVNHKPSNTKVDKKVEPKSCDKTHTCPPCPAPELLTGPSVFLFPPKPKDTLMISRTPEVTCVVVDVSDEDPEVKFNWYVDGVEVHNAKTKPREELYNLTYRVVSVLTVLHQDWLNGKEYKCKVSNKALPKPIEKTISKAKGQPREPQVYTLPPSREEMTKNQVSLTCLVKGFYPSDIAVEWESNGQPENNYKTTPPVLDSDGSFFLYSKLTVDKSRWQQGNVFSCSVMHEALHNHYTQKSLSLSP light: DIVMTQSPATLSLSPGERATLSCTSSQSVYHANWLSWFQQKPGQPPKLLIYWASTLAYGVPSRFSGSGSGTDFTLTISSLQPEDAATYYCAGGYGGGRYAFGQGTKVEIKRTVAAPSVFIFPPSDEQLKSGTASVVCLLNNFYPREAKVQWKVDNALQSGNSQESVTEQDSKDSTYSLSSTLTLSKADYEKHKVYACEVTHQGLSSPVTKSFNRGEC	3800	3.2	22.9	3.8	3.1	0.09	4.2	0.09	4.6

Results, then the binder that gave them:

Kd [1] [nM]	KD fold (SG1 = 1) [2] [fold]	KD fold (SG1 = 1) [3] [fold]	KD fold (SG1 = 1) [4] [fold]	KD fold (SG1 = 1) [5] [fold]	KD fold (SG1 = 1) [6] [fold]	KD fold (SG1 = 1) [7] [fold]	KD fold (SG1 = 1) [8] [fold]	KD fold (SG1 = 1) [9] [fold]	Binder
2000	2.2	1.3	3.5	1.4	0.29	3.3	0.18	1.5	M103205H795-MY520/M103202L889-SK1 (antibody, human IgG1, kappa, Substitutions introduced into M103205H795-SG1, expressed with M103202L889-SK1 as light chain; EU numbering) heavy: QVTLKESGPVLVKPTETLTLTCTVSGIDLSHDDISWVRQAPGKGLEWVGIISYAGSTYYASWAKGRLTISKDTSKNQVVLTMTNMDPVDTATYYCARGVPAYSHGGDLWGQGTLVTVSSASTKGPSVFPLAPSSKSTSGGTAALGCLVKDYFPEPVTVSWNSGALTSGVHTFPAVLQSSGLYSLSSVVTVPSSSLGTQTYICNVNHKPSNTKVDKKVEPKSCDKTHTCPPCPADELLTGPVVFLFPPKPKDTLMISRTPEVTCVVVDVSDEDPEVKFNWYVDGVEVHNAKTKPREELYNSTYRVVSVLTVLHQDWLNGKEYKCKVSNKALPKPIEKTISKAKGQPREPQVYTLPPSREEMTKNQVSLTCLVKGFYPSDIAVEWESNGQPENNYKTTPPVLDSDGSFFLYSKLTVDKSRWQQGNVFSCSVMHEALHNHYTQKSLSLSP light: DIVMTQSPATLSLSPGERATLSCTSSQSVYHANWLSWFQQKPGQPPKLLIYWASTLAYGVPSRFSGSGSGTDFTLTISSLQPEDAATYYCAGGYGGGRYAFGQGTKVEIKRTVAAPSVFIFPPSDEQLKSGTASVVCLLNNFYPREAKVQWKVDNALQSGNSQESVTEQDSKDSTYSLSSTLTLSKADYEKHKVYACEVTHQGLSSPVTKSFNRGEC
2200	1.5	1.3	3.2	2.4	0.16	3.3	0.16	2.9	M103205H795-MY521/M103202L889-SK1 (antibody, human IgG1, kappa, Substitutions introduced into M103205H795-SG1, expressed with M103202L889-SK1 as light chain; EU numbering) heavy: QVTLKESGPVLVKPTETLTLTCTVSGIDLSHDDISWVRQAPGKGLEWVGIISYAGSTYYASWAKGRLTISKDTSKNQVVLTMTNMDPVDTATYYCARGVPAYSHGGDLWGQGTLVTVSSASTKGPSVFPLAPSSKSTSGGTAALGCLVKDYFPEPVTVSWNSGALTSGVHTFPAVLQSSGLYSLSSVVTVPSSSLGTQTYICNVNHKPSNTKVDKKVEPKSCDKTHTCPPCPADELLTGPSVFLFPPKPKDTLMISRTPEVTCVVVDVSDEDPEVKFNWYVDGVEVHNAKTKPREELYNSTYRVVSVLTVLHQDWLNGKEYKCKVSNKALPKPIEKTISKAKGQPREPQVYTLPPSREEMTKNQVSLTCLVKGFYPSDIAVEWESNGQPENNYKTTPPVLDSDGSFFLYSKLTVDKSRWQQGNVFSCSVMHEALHNHYTQKSLSLSP light: DIVMTQSPATLSLSPGERATLSCTSSQSVYHANWLSWFQQKPGQPPKLLIYWASTLAYGVPSRFSGSGSGTDFTLTISSLQPEDAATYYCAGGYGGGRYAFGQGTKVEIKRTVAAPSVFIFPPSDEQLKSGTASVVCLLNNFYPREAKVQWKVDNALQSGNSQESVTEQDSKDSTYSLSSTLTLSKADYEKHKVYACEVTHQGLSSPVTKSFNRGEC
